Publication PMC11686114 (Frontiers in Immunology, 2024)
Positions count from the first letter of the chain named. Ends that are not written are not given here.

T1: TRBV5-1 antigenic peptide No. 1 (…) conjugated to BSA (human)
T1 sequence (peptide): TQTPRYLIKTRGQQ

T2: TRBV5-1 antigenic peptide No. 1 (TQTPRYLIKTRGQQ), biotinylated (Homo sapiens, also: biotinylated (site not given here))
T2 construct: short form of antigenic peptide No. 1 of the TRBV5-1 segment of the human TCR beta chain; probably held on streptavidin, since its control is PBS-streptavidin (surmise); also called Ag3; peptide-biotin; source: synthetic peptide (Proteogenix)
T2 chain: TQTPRYLIKTRGQQ

T3: TRBV5-1 antigenic peptide No. 1 (TQTPRYLIKTRGQQ), peptide alone (Homo sapiens)
T3 construct: short form of antigenic peptide No. 1 of the TRBV5-1 segment of the human TCR beta chain; also called Ag1; Peptide N. 1; source: synthetic peptide (Proteogenix)
T3 chain: TQTPRYLIKTRGQQ

B1: scFv clone C10 (scFv, V domains shown)
VH: EVQLVQSGAEVKKPGSSVKVSCKASGGTFSSYAISWVRQAPGQGLEWMGGIIPIFGTANYAQKFQGRVTITADKSTSTAYMELSSLRSEDTAVYYCAREPLRGYSGYDFYYYGMDVWGQGTMVTVSS
VL: SYELTQPHSVSGSPGETVTISCAGSGGSIASNYVQWYQQRPGSAPTTLIYEDKVRPSGVPDRFSGSIDYSSDSASLTISGLKTEDEADYYCQSADSTSTYVFGTGTKVTVL
notes: tested as phage clone in the confirmatory monoclonal ELISA; source: phage display clone from the human naive scFv library LiAb-SFMAX (Proteogenix), amplified in E. coli TG1
B2: scFv clone A8 (scFv, V domains shown)
VH: QVQLVQSGPEMKKAGASVRVSCKGSGYTFSSFDINWVRQVPGQGLEWMGWMNPDTGNTGLAQKFQGRVTMTRDTSIRTAYMELRSLRSDDTAVYYCARDAPRNGRGMDVWGQGTMVTVSS
VL: SYELTQPPSVSVSPGQTARITCSGDALPKQYAYWYQQKPGQAPVLVIYQDTKRPSGIPERFSGSSSGTTVTLTISGVQAEDEADYYCQSADSSGTYPVFGGGTKLTVL
notes: as for B1
B3: scFv clone D5 (scFv, V domains shown)
VH: QVQLVQSGAEVKKPGASVKVSCKPSGYYFNGYDITWVRQAIGQGLEWMGWMNPNSGNRDYAHQFQGRLTMTWDTSLSTAYLELNNLQSDDTAIYYCARERVSSGLDFWGQGTLVTVSS
VL: B2 VL with V46L, Q49K, T51S, K52E, P97V, K104Q
notes: as for B1
B4: scFv clone A2 (scFv, V domains shown)
VH: QVQLQQSGPGLVKPSQTLSLTCAISGDSVSSNSAAWNWIRQSPSRGLEWLGRTYYRSKWYNDYAVSVKSRITINPDTSKNQFSLQLNSVTPEDTAVYYCARDQAAAEVYFDYWGQGTLVTVSS
VL: NFMLTQPHSVSESPGKTVTISCTRSSGSIASNYLQWYQQRPGSAPTTVIYEDNQRPSGVPDRFSGSIDSSSNSASLTISGLKTEDEADYYCQSYDNRNHWVFGGGTQLTVL
notes: as for B1
B5: scFv clone A5 (scFv, V domains shown)
VH: B4 VH
VL: B4 VL with L34V, A44S, N96S, R97S, Q107K, L108V
notes: as printed identical to the VH of A2; tested as phage clone in the confirmatory monoclonal ELISA; source: phage display clone from the human naive scFv library LiAb-SFMAX (Proteogenix), amplified in E. coli TG1
B6: scFv clone A12 (scFv, V domains shown)
VH: QVQLQQWGAGLLKPSETLSLTCAVYGGSFSGYYWSWIRQPPGKGLEWIGEINHSGSTNYNPSLKSRVTISVDTSKNQFSLKLSSVTAADTAVYYCARWDLDYWGQGTLVTVSS
VL: EIVLTQSPLSLPVTLGQSASISCRSSQSLVHSDGNTYLNWFQQRPGQSPRRLIYQVSKRDSGVPDRFSGSGSGTDFTLRISRVEAEDVGFYYCMQGTHWPPITFGQGTRLEIK
notes: tested as phage clone in the confirmatory monoclonal ELISA; lead scFv from which the r-hIgG1 mAb was made; also called lead scFv; source: phage display clone from the human naive scFv library LiAb-SFMAX (Proteogenix), amplified in …

What follows are binders tested against T1, TRBV5-1 antigenic peptide No. 1 (…) conjugated to BSA (human) (assay: ELISA; confirmatory monoclonal phage ELISA; antigens peptide alone, peptide-BSA, peptide-biotin; controls PBS, 10% BSA-PBS, PBS-streptavidin; phage dilution factors 1, 3, 9). Conditions: not given.
With B1 the ELISA signal at phage dilution factor 1 was 3.83, the ELISA signal at phage dilution factor 3 was 3.55 and the ELISA signal at phage dilution factor 9 was 3.04. With B2 the ELISA signal at phage dilution factor 1 was 4.58, the ELISA signal at phage dilution factor 3 was 4.2 and the ELISA signal at phage dilution factor 9 was 4.14. Work on B3 yielded an ELISA signal at phage dilution factor 1 of 4.03, an ELISA signal at phage dilution factor 3 of 3.56 and an ELISA signal at phage dilution factor 9 of 3.5. Binder B4 has an ELISA signal at phage dilution factor 1 of 4.3, an ELISA signal at phage dilution factor 3 of 4.04 and an ELISA signal at phage dilution factor 9 of 3.84. With B5 the ELISA signal at phage dilution factor 1 was 4.09, the ELISA signal at phage dilution factor 3 was 3.8 and the ELISA signal at phage dilution factor 9 was 3.74. Work on B6 yielded an ELISA signal at phage dilution factor 1 of 2.93, an ELISA signal at phage dilution factor 3 of 1.82 and an ELISA signal at phage dilution factor 9 of 0.78.

Target: T2, TRBV5-1 antigenic peptide No. 1 …
Test: as above
Conditions: one partner purified
For B1, the “ELISA signal at phage dilution factor 1” value was 2.11, the “ELISA signal at phage dilution factor 3” value was 1.72 and the “ELISA signal at phage dilution factor 9” value was 1.62. B2 was tested, and the “ELISA signal at phage dilution factor 1” value was 2.09, the “ELISA signal at phage dilution factor 3” value was 2.06 and the “ELISA signal at phage dilution factor 9” value was 2. With B3 the “ELISA signal at phage dilution factor 1” value was 2.38, the “ELISA signal at phage dilution factor 3” value was 1.9 and the “ELISA signal at phage dilution factor 9” value was 1.67. B4 was tested, and the “ELISA signal at phage dilution factor 1” value was 2.46, the “ELISA signal at phage dilution factor 3” value was 1.85 and the “ELISA signal at phage dilution factor 9” value was 1.28. For B5, the “ELISA signal at phage dilution factor 1” value was 2.73, the “ELISA signal at phage dilution factor 3” value was 2.53 and the “ELISA signal at phage dilution factor 9” value was 1.55. With B6 the “ELISA signal at phage dilution factor 1” value was 2.79, the “ELISA signal at phage dilution factor 3” value was 1.99 and the “ELISA signal at phage dilution factor 9” value was 1.22.

Target: T3, TRBV5-1 antigenic peptide No. 1 …
Test: as above
Conditions: one partner purified
B1 was tested, and the “ELISA signal at phage dilution factor 1” value was 1.19, the “ELISA signal at phage dilution factor 3” value was 0.75 and the “ELISA signal at phage dilution factor 9” value was 0.42. With B2 the “ELISA signal at phage dilution factor 1” value was 0.94, the “ELISA signal at phage dilution factor 3” value was 0.37 and the “ELISA signal at phage dilution factor 9” value was 0.14. For B3, the “ELISA signal at phage dilution factor 1” value was 0.75, the “ELISA signal at phage dilution factor 3” value was 0.32 and the “ELISA signal at phage dilution factor 9” value was 0.13. In the case of B4, the “ELISA signal at phage dilution factor 1” value is reported as 0.95, the “ELISA signal at phage dilution factor 3” value is reported as 0.91 and the “ELISA signal at phage dilution factor 9” value is reported as 0.35. With B5 the “ELISA signal at phage dilution factor 1” value was 0.88, the “ELISA signal at phage dilution factor 3” value was 0.37 and the “ELISA signal at phage dilution factor 9” value was 0.11. B6 was tested, and the “ELISA signal at phage dilution factor 1” value was 0.99, the “ELISA signal at phage dilution factor 3” value was 0.33 and the “ELISA signal at phage dilution factor 9” value was 0.12.
